In patent US20210332133A1 (TENEOTWO, published 2021):
Positions count from the first letter of the chain named.

B1: SEQ ID NO 21 (antibody, V domains shown)
VH: EVQLVESGGGLVQPGGSLRLSCVASGFTFSSYWMSWVRQAPGKGLEWVANIKQDGSEKEYVDSVKGRFTISRDNAKNSLYLQMNSLRAEDTAVYYCASGVYSFDYRGQGTLVTVSS
notes: Heavy chain-only antibody (UniAb, human IgG, no light chain, no CH1)
B2: SEQ ID NO 15 (antibody, V domains shown)
VH: B1 VH with V12A, V23A, Y32F, N50T, I51M, K52N, E59D, R87T
notes: as for B1
B3: SEQ ID NO 18 (antibody, V domains shown)
VH: B1 VH with Q13K, V23E, N50H, E59Y
notes: as for B1
B4: SEQ ID NO 14 (antibody, V domains shown)
VH: B1 VH with V23A, S31N, L45Q, N50T, K52N, E57D, E59D, N77K
notes: as for B1
B5: SEQ ID NO 17 (antibody, V domains shown)
VH: B1 VH with V23A, T28S, S31D, Y32F, N50T, K52S, D54A, E59D, N77K
notes: as for B1
B6: SEQ ID NO 20 (antibody, V domains shown)
VH: B1 VH with R19T, S31D, W33Y, V37I, E59F, A75P, N84D, A88V
notes: as for B1
B7: SEQ ID NO 19 (antibody, V domains shown)
VH: B1 VH with S31D, K52N, Q53K, D54A, K58E, E59F, N84D
notes: as for B1
B8: SEQ ID NO 16 (antibody, V domains shown)
VH: B1 VH with L11M, V23A, N50T, K52N, E59D, N77K, Y80L
notes: as for B1

Molecular target: T1, human CD19 (human, UniProt P15391 20-291)
T1 construct: also called B-Lymphocyte Surface Antigen B4; recombinant CD19 extracellular domain
T1 sequence (looked up): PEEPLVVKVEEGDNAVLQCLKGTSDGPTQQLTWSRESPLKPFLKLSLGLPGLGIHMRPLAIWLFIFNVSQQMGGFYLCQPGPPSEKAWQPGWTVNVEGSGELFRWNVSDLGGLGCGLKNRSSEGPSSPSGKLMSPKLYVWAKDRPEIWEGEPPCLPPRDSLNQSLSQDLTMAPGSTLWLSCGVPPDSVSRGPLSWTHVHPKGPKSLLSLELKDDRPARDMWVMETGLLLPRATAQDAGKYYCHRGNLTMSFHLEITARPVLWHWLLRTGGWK
Assay: ELISA on recombinant CD19 extracellular domain and/or cell-binding assay

Binding result, binds:
B1
B2
B3
B4
B5
B6
B7
B8

Molecular target: T2, human CD19 on CD19-positive cells (Daudi, Raji, Ramos; CD19+ tumor cell line) (human, UniProt P15391 20-556)
T2 construct: whole, on cells
T2 sequence (looked up): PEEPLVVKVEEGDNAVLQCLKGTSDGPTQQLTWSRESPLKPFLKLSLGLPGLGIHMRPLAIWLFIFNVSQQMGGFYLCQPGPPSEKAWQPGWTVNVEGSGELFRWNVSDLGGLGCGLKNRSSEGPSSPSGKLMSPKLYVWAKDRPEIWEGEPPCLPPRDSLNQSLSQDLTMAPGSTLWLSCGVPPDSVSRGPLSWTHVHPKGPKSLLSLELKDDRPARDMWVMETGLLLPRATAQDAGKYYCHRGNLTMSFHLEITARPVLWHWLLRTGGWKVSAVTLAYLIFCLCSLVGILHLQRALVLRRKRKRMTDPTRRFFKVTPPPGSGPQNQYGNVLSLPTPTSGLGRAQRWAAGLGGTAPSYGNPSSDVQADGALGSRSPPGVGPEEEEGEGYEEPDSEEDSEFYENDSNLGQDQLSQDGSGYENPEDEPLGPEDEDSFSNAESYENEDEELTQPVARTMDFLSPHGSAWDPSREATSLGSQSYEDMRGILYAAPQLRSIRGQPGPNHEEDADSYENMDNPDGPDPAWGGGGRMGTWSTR
Assay: cell binding, flow cytometry
Protocol: Binding to CD19 positive cells was assessed by flow cytometry (Guava easyCyte 8HT, EMD Millipore) using the Daudi cell line (ATCC). Briefly, 100,000 target cells were stained with a dilution series of purified UniAbs™ for 30 minutes at 4° C. Following incubation, the cells were washed twice with flow cytometry buffer (1X PBS, 1% BSA, 0.1% NaN₃) and stained with goat F(ab′)2 anti-human IgG conjugated to R-phycoerythrin (PE) (Southern Biotech, cat. #2042-09) to detect cell-bound antibodies. After a 20-minute incubation at 4° C., the cells were washed twice with flow cytometry buffer and then mean fluorescence intensity (MFI) was measured by flow cytometry. EC50 values were calculated using GraphPad Prism 7. Binding to cynomolgus CD19 positive cells was determined using the same protocol with the following modifications: the target cells were from CHO cells stably transfected to express the extracellular domain of cynomolgus CD19 and each antibody was tested at a single concentration (˜1.7 μg/mL) so EC50 values were not calculated.

Binding result, binds:
B1
B2
B3
B4
B5
B6
B7
B8
